Results on 12 molecules are retold here after patent publication US20230235090A1 (HARBOUR BIOMED US, published 2023).

The target of experiment [1] is T1, cynomolgus monkey 4-1BB (cynomolgus monkey).
T1 construct: whole, on cells; also called CHO-K1-cyno 4-1BB; CHO-K1/cyno4-1BB
As to the kind of experiment: FACS, CHO-K1/cyno 4-1BB cells [E].
Experimental: (§1) This example is intended to investigate the in vitro binding activity of anti-human 4-1BB HCAb and H2L2 monoclonal antibodies to human and cynomolgus monkey 4-1BB. Antibody binding experiments at the cellular level were conducted using a CHO-K1 cell strain overexpressing human 4-1BB (CHO-K1-hu 4-1BB, Genescript) and a CHO-K1 cell strain overexpressing cynomolgus monkey 4-1BB (CHO-K1-cyno 4-1BB, Genescript). Briefly, the CHO-K1-hu 4-1BB and CHO-K1-cyno 4-1BB cells were digested and resuspended in DMEM complete medium, and the cell density was adjusted to 1×10⁶ cells/mL. […] The cells were incubated at 4° C. for 1 h away from light. Thereafter, the cells in each well were rinsed twice with 100 μL of pre-cooled PBS, and centrifuged at 500 g at 4° C. for 5 min, and then the supernatant was discarded. […] The plate was incubated away from light at 4° C. for 30 min. The cells in each well were rinsed twice with 100 μL of pre-cooled PBS, and centrifuged at 500 g at 4° C. for 5 min, and then the supernatant was discarded. Finally, the cells in each well were resuspended in 200 μL of pre-cooled PBS, and the fluorescence signal values were read using a BD FACS CANTOII.

The target in experiment [2] is T2, human 4-1BB (human, UniProt Q07011 24-255).
T2 construct: whole, on cells; also called CD137; TNFRSF9
As to the kind of experiment: FACS, CHO-K1/hu 4-1BB cells [E].
Experimental: (§2) Antibody binding experiments at the cellular level were conducted using a CHO-K1 cell strain overexpressing human 4-1BB (CHO-K1-hu 4-1BB, Genescript) and a CHO-K1 cell strain overexpressing cynomolgus monkey 4-1BB (CHO-K1-cyno 4-1BB, Genescript). Briefly, the CHO-K1-hu 4-1BB and CHO-K1-cyno 4-1BB cells were digested and resuspended in DMEM complete medium, and the cell density was adjusted to 1×10⁶ cells/mL. […] The cells were incubated at 4° C. for 1 h away from light. Thereafter, the cells in each well were rinsed twice with 100 μL of pre-cooled PBS, and centrifuged at 500 g at 4° C. for 5 min, and then the supernatant was discarded. […] The plate was incubated away from light at 4° C. for 30 min. The cells in each well were rinsed twice with 100 μL of pre-cooled PBS, and centrifuged at 500 g at 4° C. for 5 min, and then the supernatant was discarded. Finally, the cells in each well were resuspended in 200 μL of pre-cooled PBS, and the fluorescence signal values were read using a BD FACS CANTOII.

Experiment [3] concerns the target T2, human 4-1BB. The experiment in a line: FACS, CHO-K1/hu 4-1BB cells [F].
Experimental: as §1
In experiment [4] the target is T1, cynomolgus monkey 4-1BB. The experiment in a line: FACS, CHO-K1/cyno 4-1BB cells [F].
Experimental: as §1
In experiment [5] the target is T1, cynomolgus monkey 4-1BB. The experiment in a line: FACS, CHO-K1/cyno 4-1BB cells [G].
Experimental: as §2
Experiment [6] concerns the target T2, human 4-1BB. As to the kind of experiment: FACS, CHO-K1/hu 4-1BB cells [H].
Experimental: as §2
Experiment [7] has as its target T1, cynomolgus monkey 4-1BB. As to the kind of experiment: FACS, CHO-K1/cyno 4-1BB cells [A].
Experimental: as §1
The target in experiment [8] is T2, human 4-1BB. As to the kind of experiment: FACS, CHO-K1/h4-1BB cells [K].
Experimental: Antibody binding experiments at the cellular level were conducted using a CHO-K1 cell strain overexpressing human 4-1BB (CHO-K1/hu 4-1BB, Genscript, #M00538) and a CHO-K1 cell strain overexpressing cynomolgus monkey 4-1BB (CHO-K1/cyno 4-1BB, Genscript, #M00569). Briefly, the CHO-K1-hu 4-1BB and CHO-K1/cyno 4-1BB cells were digested, resuspended in F12K complete medium, and washed once with PBS. The cell density was adjusted to 1×10⁶ cells/mL with PBS. […] The cells were incubated at 4° C. for 1 h away from light. Thereafter, the cells in each well were rinsed twice with 100 μL of pre-cooled PBS, and centrifuged at 500 g at 4° C. for 5 min, and then the supernatant was discarded. […] The plate was incubated away from light at 4° C. for 30 min. The cells in each well were rinsed twice with 100 μL of pre-cooled PBS, and centrifuged at 500 g at 4° C. for 5 min, and then the supernatant was discarded. Finally, the cells in each well were resuspended in 200 μL of pre-cooled PBS, and the fluorescence signal values were read using a BD FACS CANTOII or an ACEA NovoCyte flow cytometer.
The target of experiment [9] is T2, human 4-1BB. The experiment in a line: FACS, CHO-K1/hu 4-1BB cells [A].
Experimental: as §1
For experiment [10], the target named is T2, human 4-1BB. As to the kind of experiment: FACS, CHO-K1/hu 4-1BB cells [C].
Experimental: as §1
Experiment [11] deals with T1, cynomolgus monkey 4-1BB. The experiment in a line: FACS, CHO-K1/cyno 4-1BB cells [C].
Experimental: as §1
Experiment [12] deals with T1, cynomolgus monkey 4-1BB. The experiment in a line: FACS, CHO-K1/cyno 4-1BB cells [D].
Experimental: as §1
Experiment [13] concerns the target T2, human 4-1BB. As to the kind of experiment: FACS, CHO-K1/hu 4-1BB cells [D].
Experimental: as §2
Another experiment concerns the target T3, cynomolgus monkey B7-H4 (cynomolgus monkey, UniProt A0A2K5U6P5 25-282).
T3 construct: whole, on cells; also called CHO-K1/cyno B7-H4; CHO-K1/cynoB7H4
T3 sequence: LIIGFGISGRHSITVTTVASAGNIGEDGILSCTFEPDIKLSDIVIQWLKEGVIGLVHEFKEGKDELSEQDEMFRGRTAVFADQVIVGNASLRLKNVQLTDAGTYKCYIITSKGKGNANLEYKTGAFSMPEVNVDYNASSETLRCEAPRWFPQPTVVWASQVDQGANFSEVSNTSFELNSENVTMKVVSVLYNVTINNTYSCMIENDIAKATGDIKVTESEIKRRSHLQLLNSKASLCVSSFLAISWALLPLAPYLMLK
The experiment in a line: FACS, CHO-K1/cyno B7H4 cells [B].

The target in experiment [14] is T4, human B7-H4 (human, UniProt Q7Z7D3 25-282).
T4 construct: whole, on cells; also called VTCN1; SK-BR-3 cell line highly expressing B7-H4
T4 sequence (looked up): T3 sequence with I53L, L242F, A252S
The experiment in a line: FACS, MDA-MB-468 cells [A].

Experiment [15] concerns the target T4, human B7-H4. The experiment in a line: FACS, SKBR3 cells [A].
A further experiment addresses T5, mouse B7-H4 (mouse, UniProt Q7TSP5 25-257).
T5 construct: whole, on cells; also called CHO-K1/m B7-H4; CHO-K1/mB7-H4
T5 sequence (looked up): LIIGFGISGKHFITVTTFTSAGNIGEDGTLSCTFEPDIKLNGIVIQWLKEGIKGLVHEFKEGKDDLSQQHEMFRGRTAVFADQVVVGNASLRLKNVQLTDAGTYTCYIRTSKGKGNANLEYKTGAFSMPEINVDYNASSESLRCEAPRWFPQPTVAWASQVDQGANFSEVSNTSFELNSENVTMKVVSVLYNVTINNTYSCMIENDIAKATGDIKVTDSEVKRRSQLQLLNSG
The experiment in a line: FACS, CHO-K1/m B7H4 cells [C].

In experiment [16] the target is T4, human B7-H4. The experiment in a line: FACS, SK-BR-3 cells [A].
Experimental: (§3) This example is intended to investigate the in vitro binding activity of anti-human B7-H4 H2L2 monoclonal antibody to human/cynomolgus monkey/mouse B7-H4. Antibody binding experiments at the cellular level were conducted using a CHO-K1 cell strain overexpressing cynomolgus monkey B7-H4 (CHO-K1/cyno B7-H4, prepared in-house by Harbour Biomed), a CHO-K1 cell strain overexpressing mouse B7-H4 (CHO-K1/m B7-H4, prepared in-house by Harbour Biomed) and an SK-BR-3 cell line highly expressing human B7-H4 (ATCC® HTB-30). Briefly, the CHO-K1/cyno B7-H4 cells, CHO-K1/m B7-H4 cells or SK-BR-3 cells were digested and resuspended with PBS containing 2% BSA. The cell density was adjusted to 1×10⁶ cells/mL. […] The cells were incubated at 4° C. for 2 h away from light. Thereafter, the cells in each well were rinsed twice with 100 μL of pre-cooled PBS containing 2% BSA, and centrifuged at 500 g at 4° C. for 5 min, and then the supernatant was discarded. […] The plate was incubated away from light at 4° C. for 1 h. The cells in each well were rinsed twice with 100 μL of pre-cooled PBS containing 2% BSA, and centrifuged at 500 g at 4° C. for 5 min, and then the supernatant was discarded. Finally, the cells in each well were resuspended in 200 μL of pre-cooled PBS containing 2% BSA, and the fluorescence signal values were read using an ACEA Novocyte3000 flow cytometer.
The target in experiment [17] is T1, cynomolgus monkey 4-1BB. As to the kind of experiment: FACS, CHO-K1/cyno 4-1BB cells [B].
Experimental: as §1
For experiment [18], the target named is T1, cynomolgus monkey 4-1BB. As to the kind of experiment: FACS, CHO-K1/cyno 4-1BB cells [H].
Experimental: as §2

Numbering of substitutions follows the chain as printed.

T2 sequence (Q07011 24-255): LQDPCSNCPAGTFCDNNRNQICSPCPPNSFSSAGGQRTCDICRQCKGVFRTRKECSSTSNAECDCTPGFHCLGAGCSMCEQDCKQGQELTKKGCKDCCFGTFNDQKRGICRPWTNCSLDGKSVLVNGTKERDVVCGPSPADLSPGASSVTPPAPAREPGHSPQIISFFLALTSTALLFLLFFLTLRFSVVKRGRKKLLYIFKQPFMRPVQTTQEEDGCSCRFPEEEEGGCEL
Experimental for cynomolgus monkey B7-H4: as §3
Experimental for mouse B7-H4: as §3

B1: PR001833 (antibody, human IgG1, V domains shown)
VH: EVQLLESGGGLVQPGGSLRLSCAASGFTFSSYAMSWVRQAPEKGLEWVSSISGSGGSTFYADSVKGRFTISRDNSKNTLYLQMNSLRAEDTAVYFCAKEGATETDDYHFNTDVWGQGTTVTVSS
notes: anti-4-1BB HCAb, human IgG1 Fc
B1: the figures for the EC50 in the experiment with cynomolgus monkey 4-1BB [1] and with human 4-1BB [2] were 1.02 nM and 0.21 nM, respectively. The entries for the “Maximum MFI” value in the experiment with cynomolgus monkey 4-1BB [1] and with human 4-1BB [2] were 12600 MFI and 1710 MFI, respectively.

B2: PR001838 (antibody, human IgG1, V domains shown)
VH: EVQLLESGGGLVQPGGSLRLSCAASGFTFSNYAMSWFRQPPETGLKWVSSIDGSGGDTYYADSVKGRFTISRDNSKNTLYLQMNSLRAEDTAVYYCAKEGSHGTDDSHYDVDVWGQGTTVTVSS
notes: as for B1
On to B2, for which the EC50 with human 4-1BB [3] is 0.248 nM; with cynomolgus monkey 4-1BB [4], 1.09 nM; in the experiment with cynomolgus monkey 4-1BB [5], 0.329 nM; in the experiment with human 4-1BB [6], 0.851 nM. Moreover, the “Maximum MFI” value worked out at 1770 MFI with human 4-1BB [3], 13400 MFI with cynomolgus monkey 4-1BB [4] and 102000 MFI with human 4-1BB [6].

B3: PR001760 (antibody, human IgG1, V domains shown)
VH: EVQLVESGGGVVQPGGSLRLSCAASGFTFSNYAMTWVRQAPEKGLEWVSSISGSGVSTYYADSVKGRFTISRDNSKNTLYLQMTRLTAEDTAVYFCAKEGSSETDDHYYNVDVWGQGTTVTVSS
notes: as for B1
Take B3: the EC50 was found to be 0.443 nM in the experiment with cynomolgus monkey 4-1BB [7], 3.76 nM in the experiment with human 4-1BB [8] and 0.198 nM with human 4-1BB [9]. Besides, the “Maximum MFI” value was found to be 17400 MFI in the experiment with cynomolgus monkey 4-1BB [7], 83600 MFI with human 4-1BB [8] and 1740 MFI in the experiment with human 4-1BB [9].

B4: PR001771 (antibody, human IgG1, V domains shown)
VH: EVQLLESGGGLVQPGGSLRLSCAASGFTFSNYAMTWVRQPPGKGLEWVSSISGSGGSTYYADSVKGRFTISRDNSKNTLYLQMNSLRAEDTAVYYCAKEGTGTTSDYYYNVDVWGQGTTVTVSS
notes: as for B1
As for B4, the figures for the EC50 with human 4-1BB [10] and with cynomolgus monkey 4-1BB [11] were 0.532 nM and 3.77 nM, respectively. Also, the “Maximum MFI” value with human 4-1BB [10] was determined as 1720 MFI; with cynomolgus monkey 4-1BB [11], 65700 MFI.

B5: PR001781 (antibody, human IgG1, V domains shown)
VH: B4 VH with P14L, N31S, P40A, G42E, S57N, G100R, S105G
notes: as for B1
In the case of B5, in the experiment with cynomolgus monkey 4-1BB [12], the EC50 was 3.1 nM and the “Maximum MFI” value is 58300 MFI. Moreover, in the experiment with human 4-1BB [13], it took 0.492 nM to reach a half-maximal effect (EC50) and the “Maximum MFI” value is 1760 MFI.

B6: PR001780 (antibody, human IgG1, V domains shown)
VH: EVQLLESGGGLIQPGGSLRLSCAASGFTFSSFAMTWVRQAPGKGLEWVSTISGSGDNTYYADSVKGRFTISRDNSKNTLYLQMNSLRAEDTAVYFCAKEDTAVASDYYYNIDVWGQGTTVTVSS
notes: as for B1
On to B6, for which, in the experiment with cynomolgus monkey 4-1BB [12], the EC50 turned out to be 2.99 nM and the “Maximum MFI” value came out at 55500 MFI. In addition, in the experiment with human 4-1BB [13], the EC50 worked out at 0.708 nM and the “Maximum MFI” value was 1700 MFI.

B7: PR001830 (antibody, human IgG1, V domains shown)
VH: B1 VH with A23T, S31N, A101S, T102S, Y107H, H108Y, F109Y, T111V
notes: as for B1
Consider B7, for which, in the experiment with cynomolgus monkey 4-1BB [1], it took 0.899 nM to reach a half-maximal effect (EC50) and the “Maximum MFI” value turned out to be 14000 MFI. For the same molecule, in the experiment with human 4-1BB [2], the EC50 amounted to 0.209 nM and the “Maximum MFI” value was determined as 1830 MFI.

B8: control antibody 1 (PR000157) (antibody, V domains shown)
VH: EVQLVQSGAEVKKPGASVKVSCKASGYTFTSYWIGWVRQAPGQGLEWIGDIYPGGGYTNYNEKFKGRVTITRDTSTSTAYLELSSLRSEDTAVYYCARLAGSSYRGAMDSWGQGTLVTVSS
VL: DIQMTQSPSSLSASVGDRVTITCKASQGFNKYVAWYQQKPGKAPKLLIYYTSTLQPGVPSRFSGSGSGRDYTLTISSLQPEDFATYYCLQYGDLLYAFGQGTKVEIKR
notes: also called Positive control 1; 1D11.v1.9varC2
B8: the EC50 in the experiment with cynomolgus monkey B7-H4 is 2.1 nM; with mouse B7-H4 it was 1.73 nM; with human B7-H4 [16], 1.2 nM. Moreover, the “Maximum MFI” value was 1.99e+06 MFI with cynomolgus monkey B7-H4, 1.75e+06 MFI with mouse B7-H4 and 266000 MFI in the experiment with human B7-H4 [16]. Further, the “EC50 (read off the curve)” value was approximately 6 nM with human B7-H4 [14] and approximately 4 nM with human B7-H4 [15].

B9: Utomilumab analog (PR000483) (antibody, human IgG2, lambda, V domains shown)
VH: EVQLVQSGAEVKKPGESLRISCKGSGYSFSTYWISWVRQMPGKGLEWMGKIYPGDSYTNYSPSFQGQVTISADKSISTAYLQWSSLKASDTAMYYCARGYGIFDYWGQGTLVTVSS
VL: SYELTQPPSVSVSPGQTASITCSGDNIGDQYAHWYQQKPGQSPVLVIYQDKNRPSGIPERFSGSNSGNTATLTISGTQAMDEADYYCATYTGFGSLAVFGGGTKLTVLG
notes: anti-4-1BB control antibody; also called Tab
Turning to B9, the EC50 in the experiment with cynomolgus monkey 4-1BB [7] came to 0.485 nM; in the experiment with cynomolgus monkey 4-1BB [4] it was 0.485 nM; with cynomolgus monkey 4-1BB [17] it was 3.46 nM; with cynomolgus monkey 4-1BB [11], 3.46 nM; in the experiment with cynomolgus monkey 4-1BB [1], 0.485 nM; in the experiment with cynomolgus monkey 4-1BB [12] it was 3.46 nM. Moreover, a half-maximal effect with cynomolgus monkey 4-1BB [18] (EC50) was put at 0.929 nM. Also, the “Maximum MFI” value stood at 11000 MFI with cynomolgus monkey 4-1BB [7]; 11000 MFI with cynomolgus monkey 4-1BB [4]; 55500 MFI in the experiment with cynomolgus monkey 4-1BB [17]; 55500 MFI in the experiment with cynomolgus monkey 4-1BB [11]; 11000 MFI with cynomolgus monkey 4-1BB [1]; 55500 MFI with cynomolgus monkey 4-1BB [12].

B10: PR001836 (antibody, human IgG1, V domains shown)
VH: EVQLLESGGGLVQPGGSLRLSCAASGFIFSNFAMTWVRQPPEKGLKWVSSINGSGFNTYYTDSVKGRFTISRDNSRNTLYLQMNRLTAEDTAVYFCAKEGSSETDDHYYNVDVWGQGTTVTVSS
notes: as for B1
As for B10, in the experiment with human 4-1BB [3], the response was half-maximal at 0.28 nM (EC50) and the “Maximum MFI” value came to 1830 MFI. Besides, in the experiment with cynomolgus monkey 4-1BB [1], a half-maximal effect (EC50) was put at 2.41 nM and the “Maximum MFI” value stood at 15900 MFI.

B11: PR001774 (antibody, human IgG1, V domains shown)
VH: B6 VH with L5V, I12V, G42E, N57T, N74S, T91S, D100A, V103M, N110G, I111V
notes: as for B1
Regarding B11, in the experiment with human 4-1BB [10], the EC50 is 1.27 nM and the “Maximum MFI” value was 1540 MFI. Besides, in the experiment with cynomolgus monkey 4-1BB [11], the EC50 worked out at 6.73 nM and the “Maximum MFI” value was found to be 48000 MFI.

B12: PR001840 (antibody, human IgG1, V domains shown)
VH: EVQLVESGGGLVQPGGSLRLSCAASGFTFSSYWMHWVRQAPGKGLVWVSRINSDGSSTSYADSVQGRFTISRDNAKNTLYLQMNSLRAEDTAVYYCVRKGSSSYYHYSIEDDWGQGTLVTVSS
notes: as for B1
Take B12: the results for the EC50 with human 4-1BB [3] and with cynomolgus monkey 4-1BB [4] were 0.37 nM and 1.25 nM, respectively. The entries for the “Maximum MFI” value in the experiment with human 4-1BB [3] and with cynomolgus monkey 4-1BB [4] were 1670 MFI and 7300 MFI, respectively.
